{"source": "patent US20100015130", "key": {"[1]": {"target": "T1, GST-tagged mouse DISC1 fragment 596-852aa (UniProt Q811T9)", "T1 sequence": "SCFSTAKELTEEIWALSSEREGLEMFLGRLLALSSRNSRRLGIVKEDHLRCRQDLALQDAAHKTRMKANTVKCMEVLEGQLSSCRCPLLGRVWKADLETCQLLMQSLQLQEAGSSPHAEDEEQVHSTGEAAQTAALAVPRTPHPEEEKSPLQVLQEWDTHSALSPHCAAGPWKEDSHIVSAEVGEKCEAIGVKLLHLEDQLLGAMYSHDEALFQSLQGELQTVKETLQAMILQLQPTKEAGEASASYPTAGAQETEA"}, "[2]": {"target": "T2, GST-tagged mouse DISC1 fragment 356-595aa (UniProt Q811T9)", "T2 sequence": "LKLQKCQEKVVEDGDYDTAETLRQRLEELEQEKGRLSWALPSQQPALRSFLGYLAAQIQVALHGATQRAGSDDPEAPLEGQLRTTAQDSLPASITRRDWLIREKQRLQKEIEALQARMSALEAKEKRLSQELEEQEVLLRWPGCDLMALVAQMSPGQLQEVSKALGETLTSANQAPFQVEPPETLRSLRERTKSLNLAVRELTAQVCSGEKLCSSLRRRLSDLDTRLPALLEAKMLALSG"}, "[3]": {"target": "T3, GST-tagged mouse DISC1 fragment 1-220aa (UniProt Q811T9)", "T3 sequence": "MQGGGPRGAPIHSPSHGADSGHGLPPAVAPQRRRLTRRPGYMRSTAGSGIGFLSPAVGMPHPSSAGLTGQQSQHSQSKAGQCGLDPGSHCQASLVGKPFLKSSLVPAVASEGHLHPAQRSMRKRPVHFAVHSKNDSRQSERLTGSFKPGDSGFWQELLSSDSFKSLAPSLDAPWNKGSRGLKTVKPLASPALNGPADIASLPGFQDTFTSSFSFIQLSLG"}, "[4]": {"target": "T4, GST-tagged mouse DISC1 fragment 221-355aa (UniProt Q811T9)", "T4 sequence": "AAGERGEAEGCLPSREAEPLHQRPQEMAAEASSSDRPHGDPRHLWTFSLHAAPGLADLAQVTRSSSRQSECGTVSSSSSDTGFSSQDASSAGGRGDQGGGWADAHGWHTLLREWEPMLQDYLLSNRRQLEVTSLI"}}}
{"substance": "GST-GSK3β (recombinant, Active Motif)", "values": [{"measurement": "in vitro kinase assay: GST-β-catenin phosphorylation, GST-axin phosphorylation and GSK3β autophosphorylation at Y216", "setting": "[1]", "value": "none of the other 3 DISC1 fragments, GST-p25, or GST-CASK proteins inhibited GSK3β activity at this concentration (0.5 µM)"}, {"measurement": "GSK3β autophosphorylation (Y216), in vitro kinase assay", "setting": "[2]", "value": "at higher concentrations (2 µM), DISC1 fragments spanning 221-355 and 356-595 started to inhibit GSK3β autophosphorylation"}, {"measurement": "in vitro kinase assay: GST-β-catenin phosphorylation, GST-axin phosphorylation and GSK3β autophosphorylation at Y216", "setting": "[2]", "value": "none of the other 3 DISC1 fragments, GST-p25, or GST-CASK proteins inhibited GSK3β activity at this concentration (0.5 µM)"}, {"measurement": "GSK3β Y216 phosphorylation, dose response in vitro", "setting": "[3]", "value": "no inhibition of GSK3β Y216 phosphorylation was observed at 0.1 µM and the inhibition of phosphorylation plateaued at 1 µM"}, {"measurement": "in vitro kinase assay: GST-β-catenin phosphorylation, GST-axin phosphorylation and GSK3β autophosphorylation at Y216", "setting": "[3]", "value": "potently inhibited β-catenin, axin and GSK3β phosphorylation at 0.5 µM"}, {"measurement": "GSK3β autophosphorylation (Y216), in vitro kinase assay", "setting": "[4]", "value": "at higher concentrations (2 µM), DISC1 fragments spanning 221-355 and 356-595 started to inhibit GSK3β autophosphorylation"}, {"measurement": "in vitro kinase assay: GST-β-catenin phosphorylation, GST-axin phosphorylation and GSK3β autophosphorylation at Y216", "setting": "[4]", "value": "none of the other 3 DISC1 fragments, GST-p25, or GST-CASK proteins inhibited GSK3β activity at this concentration (0.5 µM)"}]}
